Source: patent publication US20200325480A1 (NOGRA PHARMA, published 2020)

Biological target: T1, TGF-β1 R1 (mouse, UniProt Q64729 30-503)
T1 construct: Endogenous protein in total cell extracts; It is seen only as part of the 102 Kda band on the anti-Smad7 Western blot; also called TGF-β1 receptor R1
T1 sequence (looked up): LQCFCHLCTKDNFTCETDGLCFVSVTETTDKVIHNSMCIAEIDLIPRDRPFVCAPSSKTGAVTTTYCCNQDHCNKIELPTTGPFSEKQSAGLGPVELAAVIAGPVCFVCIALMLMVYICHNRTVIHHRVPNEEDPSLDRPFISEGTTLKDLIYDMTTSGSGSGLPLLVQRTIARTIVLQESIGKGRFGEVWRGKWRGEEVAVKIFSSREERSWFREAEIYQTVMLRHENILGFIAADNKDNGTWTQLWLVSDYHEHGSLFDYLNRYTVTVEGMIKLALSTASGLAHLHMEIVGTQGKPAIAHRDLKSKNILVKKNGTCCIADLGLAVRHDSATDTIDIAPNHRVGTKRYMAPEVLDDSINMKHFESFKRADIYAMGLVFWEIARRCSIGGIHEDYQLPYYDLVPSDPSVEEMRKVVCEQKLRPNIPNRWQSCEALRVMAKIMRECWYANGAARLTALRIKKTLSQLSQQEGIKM
Experiment: Western blot of LPMC total protein extracts with anti-Smad7 antibody (FIG. 3)

binding result: binds
B1: Smad7 (other, mouse, UniProt O35253 1-426, looked up)
chain: MFRTKRSALVRRLWRSRAPGGEDEEEGVGGGGGGGELRGEGATDGRAYGAGGGGAGRAGCCLGKAVRGAKGHHHPHPPTSGAGAAGGAEADLKALTHSVLKKLKERQLELLLQAVESRGGTRTACLLLPGRLDCRLGPGAPASAQPAQPPSSYSLPLLLCKVFRWPDLRHSSEVKRLCCCESYGKINPELVCCNPHHLSRLCELESPPPPYSRYPMDFLKPTAGCPDAVPSSAETGGTNYLAPGGLSDSQLLLEPGDRSHWCVVAYWEEKTRVGRLYCVQEPSLDIFYDLPQGNGFCLGQLNSDNKSQLVQKVRSKIGCGIQLTREVDGVWVYNRSSYPIFIKSATLDNPDSRTLLVHKVFPGFSIKAFDYEKAYSLQRPNDHEFMQQPWTGFTVQISFVKGWGQCYTRQFISSCPCWLEVIFNSR
notes: Endogenous protein in total cell extracts, detected by Western blot with a rabbit anti-human Smad7 antibody; also called free Smad7 (47 Kda band)
